Here are results for seven molecules from patent publication US10626404B2, “Mutant xylose-metabolizing enzyme and use thereof” (National Institute of Advanced Industrial Science and …, priority 2016, dated 2020).

The target in data set [1] is T1, Clostridium phytofermentans ISDg xylose isomerase (CpXI, SEQ ID NO: 11) mutant CpXI-N303T (Lachnoclostridium phytofermentans, UniProt A9KN98, N303T).
T1 construct: cell lysate
Briefly: Xylose isomerase activity (kinetic parameters) in cell disruption solution, strain SS105. It is filed as biochemical. Particulars: cell disruptate after 24 h microaerobic fermentation, xylose 10-500 mM, pH 8.0, 30° C. The text has this: (§1) The created mutant CpXI-V162A gene expression plasmid (Table 3: plasmid No. 31) and CpXI-N303T gene expression plasmid (Table 3: plasmid No. 32) were cleaved with BsiWI and used for transformation of strain SS29. The obtained strains were designated as strain SS104 (Table 4: strain No. 29) and strain SS105 (Table 4: strain No. 30), respectively.

Data set [2] has as its system Piromyces sp. E2 xylose isomerase mutant E15D, E114G, E129D, T142S, A177T and V433I. Particulars: mutant vs wild type Piromyces sp. E2 xylose isomerase; NPL 10; cited from earlier work.
The target in data set [3] is T2, Clostridium phytofermentans ISDg xylose isomerase (CpXI, SEQ ID NO: 11) mutant CpXI-T63I (Lachnoclostridium phytofermentans, UniProt A9KN98, T63I).
T2 construct: cell lysate
Kind of data set: Xylose isomerase activity (kinetic parameters) in cell disruption solution, strain SS82. It counts as biochemical. Particulars: T63I vs wild type CpXI.

In data set [4] the target is T3, Clostridium phytofermentans ISDg xylose isomerase (CpXI, SEQ ID NO: 11) mutant CpXI-V162A, N303T (Lachnoclostridium phytofermentans, UniProt A9KN98, N303T/V162A).
T3 construct: cell lysate
Briefly: Xylose isomerase activity (kinetic parameters) in cell disruption solution, strain SS92. It counts as biochemical. Particulars: N303T vs wild type CpXI.

Data set [5] has as its target T4, Clostridium phytofermentans ISDg xylose isomerase (CpXI, SEQ ID NO: 11) double mutant CpXI-T63I, V162A (Lachnoclostridium phytofermentans, UniProt A9KN98, T63I/V162A).
T4 construct: cell lysate
Kind of data set: Xylose isomerase activity (kinetic parameters) in cell disruption solution, strain SS120. It counts as biochemical. Particulars: cell disruptate after 24 h microaerobic fermentation, xylose 10-500 mM, pH 8.0, 30° C.

In data set [6] the target is Clostridium phytofermentans ISDg xylose isomerase (CpXI), wild type, SEQ ID NO: 11 (Lachnoclostridium phytofermentans, UniProt A9KN98).
Substrate in data set [7]: OC1OC[C@@H](O)[C@H](O)[C@H]1O
Briefly: cells, lysate or membranes. Particulars: cell disruptate after 24 h microaerobic fermentation, xylose 10-500 mM, pH 8.0, 30° C. It is filed as biochemical, Clostridium phytofermentans ISDg.

Substrate in data set [8]: OC1OC[C@@H](O)[C@H](O)[C@H]1O
Briefly: cells, lysate or membranes. It counts as biochemical, Clostridium phytofermentans ISDg. Particulars: cell disruptate after 24 h microaerobic fermentation, xylose 10-500 mM, pH 8.0, 30° C.
Excerpt: as §1
This is another data set of the same source.

Substrate in data set [9]: OC1OC[C@@H](O)[C@H](O)[C@H]1O
Kind of data set: cells, lysate or membranes. Particulars: other: wild type (SS81), cell disruptate after 24 h microaerobic fermentation, xylose 10-500 mM, pH 8.0, 30° C.

For the molecule `OC1OC[C@@H](O)[C@H](O)[C@H]1O` (stereo partly drawn) [xylose, D-xylose], the Vmax value in [1] worked out at 0.030 ± 0.001 μmol mg protein^−1 min^−1; in data set [5], 0.104 ± 0.003 μmol mg protein^−1 min^−1; in [6], 0.66 μmol/mg protein/min. The “Km value compared with the wild type” value in data set [2] was “approximately twice as high”. Besides, the “Vmax value larger than the wild type” value in [2] is on record as 77%. Further, the “metabolic activity (Vmax) higher than the wild type” value in [3] is listed as 38%. In addition, the “Vmax value compared with the wild type” value in [4] is on record as “equivalent to the wild type”.

B1: Clostridium phytofermentans ISDg xylose isomerase (CpXI, SEQ ID NO: 11) mutant CpXI-T63I (Lachnoclostridium phytofermentans ISDg; T63I) (protein)
chain: MKNYFPNVPEVKYEGPNSTNPFAFKYYDANKVVAGKTMKEHCRFALSWWHTLCAGGADPFGVITMDRTYGNITDPMELAKAKVDAGFELMTKLGIEFFCFHDADIAPEGDTFEESKKNLFEIVDYIKEKMDQTGIKLLWGTANNFSHPRFMHGASTSCNADVFAYAAAKIKNALDATIKLGGKGYVFWGGREGYETLLNTDLGLELDNMARLMKMAVEYGRANGFDGDFYIEPKPKEPTKHQYDFDTATVLAFLRKYGLEKDFKMNIEANHATLAGHTFEHELAMARVNGAFGSVDANQGDPNLGWDTDQFPTDVHSATLAMLEVLKAGGFTNGGLNFDAKVRRGSFEFDDIAYGYIAGMDTFALGLIKAAEIIDDGRIAKFVDDRYASYKTGIGKAIVDGTTSLEELEQYVLTHSEPVMQSGRQEVLETIVNNILFR
notes: cell lysate
For the molecule B1, in [7] (other: T63I (SS82)), the Michaelis-Menten constant (Km) worked out at 29.2 mM and the maximum rate (Vmax) came to 0.091 µmol/min/mg.

B2: Clostridium phytofermentans ISDg xylose isomerase (CpXI, SEQ ID NO: 11) mutant CpXI-V162A, N303T (Lachnoclostridium phytofermentans ISDg; N303T/V162A) (protein)
chain: MKNYFPNVPEVKYEGPNSTNPFAFKYYDANKVVAGKTMKEHCRFALSWWHTLCAGGADPFGVTTMDRTYGNITDPMELAKAKVDAGFELMTKLGIEFFCFHDADIAPEGDTFEESKKNLFEIVDYIKEKMDQTGIKLLWGTANNFSHPRFMHGASTSCNADAFAYAAAKIKNALDATIKLGGKGYVFWGGREGYETLLNTDLGLELDNMARLMKMAVEYGRANGFDGDFYIEPKPKEPTKHQYDFDTATVLAFLRKYGLEKDFKMNIEANHATLAGHTFEHELAMARVNGAFGSVDANQGDPTLGWDTDQFPTDVHSATLAMLEVLKAGGFTNGGLNFDAKVRRGSFEFDDIAYGYIAGMDTFALGLIKAAEIIDDGRIAKFVDDRYASYKTGIGKAIVDGTTSLEELEQYVLTHSEPVMQSGRQEVLETIVNNILFR
notes: cell lysate
As for B2, in data set [7] (other: V162A, N303T (SS92)), the Km came to 28.4 mM and the Vmax amounted to 0.066 µmol/min/mg.

B3: Clostridium phytofermentans ISDg xylose isomerase (CpXI, SEQ ID NO: 11) double mutant CpXI-T63I, V162A (Lachnoclostridium phytofermentans ISDg; T63I/V162A) (protein)
chain: MKNYFPNVPEVKYEGPNSTNPFAFKYYDANKVVAGKTMKEHCRFALSWWHTLCAGGADPFGVITMDRTYGNITDPMELAKAKVDAGFELMTKLGIEFFCFHDADIAPEGDTFEESKKNLFEIVDYIKEKMDQTGIKLLWGTANNFSHPRFMHGASTSCNADAFAYAAAKIKNALDATIKLGGKGYVFWGGREGYETLLNTDLGLELDNMARLMKMAVEYGRANGFDGDFYIEPKPKEPTKHQYDFDTATVLAFLRKYGLEKDFKMNIEANHATLAGHTFEHELAMARVNGAFGSVDANQGDPNLGWDTDQFPTDVHSATLAMLEVLKAGGFTNGGLNFDAKVRRGSFEFDDIAYGYIAGMDTFALGLIKAAEIIDDGRIAKFVDDRYASYKTGIGKAIVDGTTSLEELEQYVLTHSEPVMQSGRQEVLETIVNNILFR
notes: cell lysate
Take B3: in data set [7] (other: T63I, V162A (SS120)), the Michaelis-Menten constant (Km) was 34.4 mM and the Vmax was determined as 0.104 µmol/min/mg.

B4: Clostridium phytofermentans ISDg xylose isomerase (CpXI, SEQ ID NO: 11) mutant CpXI-N303T (Lachnoclostridium phytofermentans ISDg; N303T) (protein)
chain: MKNYFPNVPEVKYEGPNSTNPFAFKYYDANKVVAGKTMKEHCRFALSWWHTLCAGGADPFGVTTMDRTYGNITDPMELAKAKVDAGFELMTKLGIEFFCFHDADIAPEGDTFEESKKNLFEIVDYIKEKMDQTGIKLLWGTANNFSHPRFMHGASTSCNADVFAYAAAKIKNALDATIKLGGKGYVFWGGREGYETLLNTDLGLELDNMARLMKMAVEYGRANGFDGDFYIEPKPKEPTKHQYDFDTATVLAFLRKYGLEKDFKMNIEANHATLAGHTFEHELAMARVNGAFGSVDANQGDPTLGWDTDQFPTDVHSATLAMLEVLKAGGFTNGGLNFDAKVRRGSFEFDDIAYGYIAGMDTFALGLIKAAEIIDDGRIAKFVDDRYASYKTGIGKAIVDGTTSLEELEQYVLTHSEPVMQSGRQEVLETIVNNILFR
notes: cell lysate
For B4, in [8] (other: N303T (SS105)), the Michaelis constant (Km) was 19.1 mM and the Vmax is 0.03 µmol/min/mg.

B5: Clostridium phytofermentans ISDg xylose isomerase (CpXI), wild type, SEQ ID NO: 11 (Lachnoclostridium phytofermentans ISDg) (protein)
chain: MKNYFPNVPEVKYEGPNSTNPFAFKYYDANKVVAGKTMKEHCRFALSWWHTLCAGGADPFGVTTMDRTYGNITDPMELAKAKVDAGFELMTKLGIEFFCFHDADIAPEGDTFEESKKNLFEIVDYIKEKMDQTGIKLLWGTANNFSHPRFMHGASTSCNADVFAYAAAKIKNALDATIKLGGKGYVFWGGREGYETLLNTDLGLELDNMARLMKMAVEYGRANGFDGDFYIEPKPKEPTKHQYDFDTATVLAFLRKYGLEKDFKMNIEANHATLAGHTFEHELAMARVNGAFGSVDANQGDPNLGWDTDQFPTDVHSATLAMLEVLKAGGFTNGGLNFDAKVRRGSFEFDDIAYGYIAGMDTFALGLIKAAEIIDDGRIAKFVDDRYASYKTGIGKAIVDGTTSLEELEQYVLTHSEPVMQSGRQEVLETIVNNILFR
As for B5, in [9], the Km was determined as 46.9 mM and the maximal velocity (Vmax) amounted to 0.066 µmol/min/mg.

B6: Clostridium phytofermentans ISDg xylose isomerase (CpXI, SEQ ID NO: 11) mutant CpXI-V162A (Lachnoclostridium phytofermentans ISDg; V162A) (protein)
chain: MKNYFPNVPEVKYEGPNSTNPFAFKYYDANKVVAGKTMKEHCRFALSWWHTLCAGGADPFGVTTMDRTYGNITDPMELAKAKVDAGFELMTKLGIEFFCFHDADIAPEGDTFEESKKNLFEIVDYIKEKMDQTGIKLLWGTANNFSHPRFMHGASTSCNADAFAYAAAKIKNALDATIKLGGKGYVFWGGREGYETLLNTDLGLELDNMARLMKMAVEYGRANGFDGDFYIEPKPKEPTKHQYDFDTATVLAFLRKYGLEKDFKMNIEANHATLAGHTFEHELAMARVNGAFGSVDANQGDPNLGWDTDQFPTDVHSATLAMLEVLKAGGFTNGGLNFDAKVRRGSFEFDDIAYGYIAGMDTFALGLIKAAEIIDDGRIAKFVDDRYASYKTGIGKAIVDGTTSLEELEQYVLTHSEPVMQSGRQEVLETIVNNILFR
notes: cell lysate
Regarding B6, in data set [8] (other: V162A (SS104)), the Km is recorded as 29.5 mM and the maximal velocity (Vmax) is 0.063 µmol/min/mg.
